From a protein production outcome set (Wang et al. 2014)

Test: label from the status in PepcDB records

| Sequence | protein production |
| --- | --- |
| MQELLFIRLNELILLIYLFSIACYFFDFIKRFYKIRNIGFVTLGIVWVLQTISLSFYVTATNQVPLGNVFDVLFALAWLIISISIVISVIKQVNISIFLFNIIGFVFIAISTFQPMHYQGAGEKLNVINELLIVHVTFAIISYAIFAFAFVNSILYLIQFKNLKQKRFTQKYFRISSVATLEKVVFYNSLVGFLFIILSIILGAQWGINTIGMDIFVDPKVIMSVIITILYGLYLLLRVRQSISKHKLIYINIILFCLNMINLLFTSHVSDFHQWTGI | failed |
| MQENHLIDIARWSERPGPRGIPSICSAHPLVIEAAMLRAHREKAPVLIEATCNQVNQDGGYTGMTPEDFTRFVGAIADRIEFPREKILLGGDHLGPNPWKHLPADEAMAKAEAMITAYAKAGFTKLHLDTSMGCAGEPTALPDATTAARAARLAAVAEDAVGGRGGVLPVYIIGTEVPIPGGALEELDTLEVTAPEAAIETVRVHRAAFEEAGAAGAFSRVVGAVVQPGVEFGNENVIAYDRARAEKLSATLGQLHGMVFEAHSTDYQTPDALRELVADGFAILKVGPGLTFALREALYGLDQIAAFLFPAARERTLAEVTEAVMREEPANWAKYYHGSAEEQRLQRHFSYSDRIRYYWPHPKAAAAVDELMSLLDGVAIPETLISQFLAGSYARVRNGEVAPQAKPLALAAVDAVLQDYFAACRV | not failed |
| MQEYIEFFKAHTLLSLAWVGLFVMLVVSVIKSSFSKIKNVTHQELTIMVNRQDAKVVDVRSNDDFRKGHIVGAVNVTLADIKNNQVSALEKFKGSPIILVCNAGMTSSQAAQLLSKQGFENLYNLKGGMGEWQAANMPVSKSKR | failed |
| MQFFDGYHYHGTTFEQSYRCYPASFIDKPQLESGDKIIMPPSALDRLASLHIDYPMLFELRNAGIERVTHCGVLEFIAEEGMIYMPYWMMQNLLLQEGDIVRVRNVTLPKGTYVKLQPHTTDFLDISNPKAILETALRNYSCLTSGDSIMVPYNNKKYFIDIVETKPANAISIIETDCEVDFAPPLDYKEPERPTAPSAAKGPAKAEEVVDEPEPKFNPFTGSGRRLDGRPLAYEPAPASSSKGKQPVVANGNGQSSVASSSEKATRAQGKLVFGANGNRAPKEAAPKVGAAKETKKEEQEKKDEPKFQAFSGKKYSLRG | not failed |
| MQFIEKIGIVLATYNPNLEYFEKQIQSIKQQSWKNWVCHIVDDCSHSEYQVGIKNIIDNDPRFICHFHSHNLNHYYNFERGLKYCAQDKSITAISLADQDDIWHDDKLKILLKKLRSQKAVLIHSDLELINSYDQTIHPSAWDFEGRKPHKLSHDLLLLRNVVTGCSVLFCTSLLTDVLPFPPQNKISWYHDWWIALVASHRGKIVHIHKPLVWYRIHNANNVGVLKDSGKIHCELLLLCRKKFKINGNSYLVHRDFSKAFYRRFKRELNELGYTNPFDDRKLDFGWHILKLLYKSLLVGYNSEGAALRIGVLKLIFDIQRSYRIILYHCLKTFKSYYKNSQ | failed |
| MQFIWAALGLVCVALALIGVALPLLPTVPFLLLAAFFFARSSERLHTWLVTHRLFGPMILDWQQSGAIRPGAKKAATLSIAAVFGLSLVFAVPSHVLLIQAVVLSGVLIFIWTRPNG | failed |
| MQFKAEARRNKLMGLWVAEVLGKSGDEANAYAAEVVKADFEEAGHEDVMRKVLGDLDGKRPEAEVRAKYEGLMAVAKAQLMDEL | not failed |
| MQFKIIKAQELEKQQREKIAELCFAAFEEDPWSQYAFMQNAFHIIGLLGEDIVSHALWTDRVFTLNNHVTLKTAYIEYVTTDSTMRGRGLASKLLMYLINILTTKKYELAALQPEVEAFYRKLGWVSWGGNLYIKHNISIYKTDGIEVMLYPLSGGLKDQIVCSLKNDKICTDWREGELW | failed |
| MQFTDFSLDQRLLQSLKHMGIATPTAIQEQALPIALAGKDLMASSKTGSGKTLAFLLPALQRVISTRALSKRDPRVLILLPTRELAHQVYSQLRLLVANTQYKAISVLGGENFNDQAKALAKEPHFIVATPGRIADHLEQKNLFLNGLELLILDEADRMLDLGFAPQLKAINEAADHKRRQTLMFSATLDHSEINEIAAALLKNPLHVAIGTAHAEHQDISQRIYLCDHLDHKEALLSRLLSDESHKQVIIFTATRADTERLAAKLSAQGFATAALSGELKQAARNQIMDQFARGQQQILVTTDVASRGLDLLNVSLVINFDMPKFAEEYVHRIGRTGRAGAKGDAISLVGPKDWDSFKKVQLFLRKTFEISVIKGLEAKFTGLKDKPKSVATKGVVKANTKGKSKPKPNVVKAAPSRDKRFITGVDVGDAPMRKKPKAQLLQESDDEI | failed |
| MQHESPIIRRKSTRIYVGDVPIGDGAPIAVQSMTNTRTTDVEATVAQIRALEKVGADIVRVSVPTMEAAEAFKLIKQQVSVPLVADIHFDYRIALKVAEYGVDCLRINPGNIGNEERIRSVVDCARDKNIPIRIGVNGGSLEKDLQMKYGEPTPEALVESAMRHVDHLDRLNFDQFKVSVKASDVFLAVDSYRLLAKKIDQPLHLGITEAGGARAGAVKSAVGLGMLLSEGIGDTLRISLAADPVEEIKVGFDILKSLRIRSRGINFIACPSCSRQEFDVIGTVNALEQRLEDIITPMDVSIIGCVVNGPGEAEVSHLGLAGSNKKSAFYEDGKRQKERFDNNDLVNQLEAKIRAKASMMDSENRIEIKVQD | failed |
| MQHFKTKIEHFQIYIYFSAIILGILIGTNFPGISSILETLVAICIAILMFSMFSQIPFFELQKRVLNLKFVTALIIANFVILPILVYFLISIFNISSSAILIGLFLVLLTPCIDYVIVFTALGKGNAQYMLISTPILFVLQILLLPLYLTMFLDKSILTIIDIEPFIHSFFTFIIIPLLLALTLQLLSKKYYVMSQTLKATSWLPELFMSLVLFTVVGSQINKIANDLSVVVKVAPIYIIFMLIAPFIGYFTGKLFHLKPSILRTLAFSTSTRNALVVLPLALSLPDQWVTITTTVIITQTLIELIGELFYIKMIPSLIKS | failed |
| MQICDSYNQKNSLFNAMNRFIGAVNNMDQTVMVPSLLRDVPLDQEEEKEVTSFQDGDMYGSYVLLKSIRNDIEWGVLQAEERRKEKHGVTTTSLEVSRIEPNDKDLEKLFHYHLSGLHTVLAKLTRKANTLTNRYKQEIGIGGCGN | failed |
| MQIFLLFLSFAKAIHKIILIYGETAFPTVCSALQIYSLMKLKTLICATTAFWACCSCTSGELSPVDYVDPFIGTGFHGHTYPGATVPFGAVQLSPDTRAGNWDACSGYHYNDTTLKGFSHTHLSGTGCIDLGDILFRPTTLKPDLTTESIYQPAAFSHKDEDASAGYYSVVLKEEGIKAELTVTAHAGMHRYTFSSGKEASIIIDLTHLLDNEYIYEAELEQTAANEITGMRRTRGWTDNQYVYFVAQFSKPFQAIDFIQNKKMVSAGVKLNGTDLQACLSFDNSNGEPVIAKVGLSIVSEKNARENLETEVIGFDFDAVRSAARSAWEQALSAITVKGGNTDDLKNFYTAMYHSMVVPNVVSDVNGEYRRHNMEIGQLPKGKVQYSTFSLWDTFRAWNPLMTLIDTTLVNNMINSFLDIYESSGELPIWPLSAGETGTMIGYHAVSVIADAYMKGIRGFDAEKALEAMVVSSEKNKKGADYYIQNGFIPSNIKKESISCLLEFAYDDWCIARMAQEMGKDDIYQKYIQRSQNYINVFDGNTKFFRPKRMDGNWETPFNPIEIGRAYTEATAWQYRFFVPHDVSGMAQLFGGKKEFITALDSIFTVESDVHGDLVDITGLIGQYVHGNEPSHHIAYLYDYVGQPWKTQEMTRRLLHEMYAPTPEGIIGNEDCGQMSGWYILSSLGIYSVCPGSNEFALTTPLFEKAVVNLANRKTLTILANNPKKNVYITKVELNGQPIDVNFITYAQLMEGGELRFTLSDKPNMERGVSSEASPYSYTKDEVVSIPYVDKDLNLFMDKVTVALATTTKDAEIRYTLDGSEPTEQSALYEQPFELDKTTLIKAKGFKEGLRSSRTLSISATKAELKAALSVNPTQNGTSYKYFEGTYQKVADVEKSPLLESGVMPEPSIKGAKQEDHFGYIFSGLINVPEDGVYTFQTRSDDGSVLYIHDEQVVNNDASHAAIPATGMVALKKGFHPYKLYYFEDYEGEYLSWAWKLPSAEKLAPIPASALFVK | failed |
| MQITAAAQHDYQQAIAAYQAGEFEAAIAQLDRLLGDVPDWAAALGLQGLCYYCCDQRETGITLLRRAIALDPTDPTHFNNLGNLLQRQGHLTEALERLTQALAIDPTHVAARFNRAITLQKLGDPATALQDYQQLLEADPDNPEIRYNSAHAALAIGDWDFGLPAYEARCQQLQHFPEIEASLKLPRWQGQDLDQQTLLVWGEQGFGDRLMGARWIPLLRQRYPQARIVWQTSPSLVRLFQTLADDRLMVLAEGAELPVCDWQVPLLSLMLIFQSDRNRLPWHGPYFFPHKGDFLPASDRPRLGLVWSAGRNPAQSAEFAANKSCPLALLWSVLSVSGWDVVSLQVDEARQDLQTLSDPLLDLGSEIGDFQDTVDRLAHLDLLITVDTAIAHLGGMIGLPTWVLLPAVPDWRWELSGATTPWYPSLRLFRQPSPGDWSGAIAELQTALAEFQPAPQHWDYRGELSIADWIQAADRAFTAQNWPRAEWLIRQAVAIAPEEPSFHRALGRSLKQQGDYAGAAQALAIACELAPTQAEFWHERSSLEYYDNQLTAALNSLNQAIALQGATADHLISRGVLHYRLGQFPESCADYDAAAAIAPESPLLRCNRGFLQLHWGNWLQGWPDLEVRFDFQSDLDPFQYRQLAPAWQGEPLGQQTLLIWGEQGLGDHLLFCRWLPELRLQHPQAQLIFVTDPLLERLMQQLADDRLQICCLDEPVPACDRQVALMSLPAIAQTTPATVPWRGAYFQSSMPPLRCAETLQVGFVWASGKRSSPETARLYREKSCPLNELLPALLAVPAVDYYSFQVGADVAELQPWLEQSDRLFDLSEQLQDFQDTADWLAEMDVLISVDTAVANLAGMMALPVWTLLPEPANWRWGLTGHTTPWYPSMRLYRQTQRGNWSGAIAQIQQDLQQLSRDRDCLVT | failed |
| MQKIALCITGASGVIYGIKLLQVLEELDFSVDLVISRNAKVVLKEEHSLTFEEVLKGLKNVRIHEENDFTSPLASGSRLVHYRGVYVVPCSTNTLSCIANGINKNLIHRVGEVALKERVPLVLLVREAPYNEIHLENMLKITRMGGVVVPASPAFYHKPQSIDDMINFVVGKLLDVLRIEHNLYKRWRG | not failed |
| MQKQLLLGVEAIAQAALDAGISGVYAYPGTPSTEITEHIQNSRMAKERNVHREWAANEKTAMESALGMSYAGKRALVCMKHVGMNVAADCFMNAAITGANGGMVIVAADDPSMHSSQNEQDSRVYGQFAMIPVMEPSNQQEAYDMTRLAFDLSERLGTPVMMRITTRLAHSRAGVVQTEPIGENELHLPEDKRQYVLLPGIAKKRYRILLDKQTDFVRESENSPYTEYVDAADKSKGIVACGIAYNYLMEAFKAQVPYPVLKVTQYPIPHKQMERLLNECGDIVVMEEGYPVVEQLLKGFPGLERIKGRLDGTLPRDGELNPDHVAKAFNIPVVEGEPIPDLVAARPPALCKGCSHRDVYDALNEVLTEYPNGRVFSDIGCYTLGALPPYEAINSCVDMGASITMAKGAADAGLFPAVSVIGDSTFTHSGITGLLDAINENSNITVIISDNESISMTGGQHSSAYGKVEAICRGIGVDPDHIRELLPVPKNHDELCSIIREEINYEGVSVIIPRRVCIQKHARDAKAAKRAKAKE | not failed |
| MQKSEGSGGTQLKNRATGNYDQRTSSSTQLKHRNAVQGSKSSLSTSSPESARKLHPRPSDKLNPKTINPFGEQSRVPSAFAAIYSKGGIPCRLVHGSVKHRLQWECPPESLSFDPLLITLAEGLRETKHPYTFVSKEGFRELLLVKGAPEKAIPLLPRLIPVLKAALVHSDDEVFERGLNALVQLSVVVGPSLNDHLKHLLTSGSLSIIKSKIPTYCSICC | failed |
